In publication PMC7397094:

Target: human recombinant RetGC1 (retinal membrane guanylyl cyclase 1) (human) (UniProt Q02846)
Sequence of UniProt Q02846 (Q02846 52-1103): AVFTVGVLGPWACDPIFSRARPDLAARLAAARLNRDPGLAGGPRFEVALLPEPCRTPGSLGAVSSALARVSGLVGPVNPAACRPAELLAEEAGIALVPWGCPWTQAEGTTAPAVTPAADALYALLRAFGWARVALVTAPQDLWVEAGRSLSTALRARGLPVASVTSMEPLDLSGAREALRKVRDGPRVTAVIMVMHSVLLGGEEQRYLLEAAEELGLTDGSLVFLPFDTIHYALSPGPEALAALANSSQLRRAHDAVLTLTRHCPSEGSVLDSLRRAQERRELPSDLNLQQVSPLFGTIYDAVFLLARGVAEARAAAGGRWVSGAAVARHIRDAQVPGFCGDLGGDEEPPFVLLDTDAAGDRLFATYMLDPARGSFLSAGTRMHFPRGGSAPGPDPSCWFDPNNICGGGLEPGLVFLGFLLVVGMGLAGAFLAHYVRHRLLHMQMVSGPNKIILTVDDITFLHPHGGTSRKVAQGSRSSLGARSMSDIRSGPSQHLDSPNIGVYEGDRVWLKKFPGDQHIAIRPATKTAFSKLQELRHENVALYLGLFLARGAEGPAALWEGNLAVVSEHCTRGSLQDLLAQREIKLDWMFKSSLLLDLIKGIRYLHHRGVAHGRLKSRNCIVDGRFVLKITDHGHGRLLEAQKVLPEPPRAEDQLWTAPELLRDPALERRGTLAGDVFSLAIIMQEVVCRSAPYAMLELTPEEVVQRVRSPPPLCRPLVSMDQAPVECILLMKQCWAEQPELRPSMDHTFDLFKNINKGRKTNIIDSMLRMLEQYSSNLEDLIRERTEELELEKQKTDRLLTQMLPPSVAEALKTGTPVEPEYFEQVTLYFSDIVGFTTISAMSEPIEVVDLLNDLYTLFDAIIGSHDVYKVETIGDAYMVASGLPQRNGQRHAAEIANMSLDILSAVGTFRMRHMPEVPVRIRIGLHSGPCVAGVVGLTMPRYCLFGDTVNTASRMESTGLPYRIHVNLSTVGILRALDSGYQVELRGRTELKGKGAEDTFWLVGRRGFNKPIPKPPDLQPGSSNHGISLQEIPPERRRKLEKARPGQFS

| Substance | IC50 of inhibition of GCAP1-activated RetGC1 activity [µM] |
| --- | --- |
| RD3 A105R (from UniProt Q7Z3Z2 1-195) (natural protein) | 0.0036 |
| RD3 R99E (from UniProt Q7Z3Z2 1-195) (natural protein) | 0.0355 |
| RD3 R101A/Q102L (from UniProt Q7Z3Z2 1-195) (natural protein) | 4.46 |

Target: human recombinant RetGC1 (retinal membrane guanylyl cyclase 1) (human) (UniProt Q02846)
Remark: another data set of the same source

| Substance | RetGC1 activity left with 100 nM RD3, % of that without RD3 (1.5 uM GCAP1) [%] |
| --- | --- |
| RD3 M24D (from UniProt Q7Z3Z2 1-195) (natural protein) | 10.9 |
| RD3 E108K (from UniProt Q7Z3Z2 1-195) (natural protein) | 7.1 |
| RD3 E41A (from UniProt Q7Z3Z2 1-195) (natural protein) | 10.3 |
| RD3 A105R (from UniProt Q7Z3Z2 1-195) (natural protein) | 8.5 |
| RD3 T56H (from UniProt Q7Z3Z2 1-195) (natural protein) | 9.2 |
| RD3 Q112E/E113Q (from UniProt Q7Z3Z2 1-195) (natural protein) | 9.2 |
| RD3 L98R (from UniProt Q7Z3Z2 1-195) (natural protein) | 5.9 |
| RD3 R42E (from UniProt Q7Z3Z2 1-195) (natural protein) | 14.5 |
| RD3 W6L (from UniProt Q7Z3Z2 1-195) (natural protein) | 11.1 |
| RD3 E41R (from UniProt Q7Z3Z2 1-195) (natural protein) | 12.6 |
| RD3 R99E (from UniProt Q7Z3Z2 1-195) (natural protein) | 27.1 |
| RD3 R145D (from UniProt Q7Z3Z2 1-195) (natural protein) | 9.2 |
| RD3 A22Y (from UniProt Q7Z3Z2 1-195) (natural protein) | 14.4 |
| RD3 E127R/R128E (from UniProt Q7Z3Z2 1-195) (natural protein) | 10.1 |
| RD3 P67D (from UniProt Q7Z3Z2 1-195) (natural protein) | 11 |
| RD3 I76R (from UniProt Q7Z3Z2 1-195) (natural protein) | 7.5 |
| RD3 A22E (from UniProt Q7Z3Z2 1-195) (natural protein) | 6.4 |
| RD3 T66K (from UniProt Q7Z3Z2 1-195) (natural protein) | 7.3 |
| RD3 D83R (from UniProt Q7Z3Z2 1-195) (natural protein) | 7.2 |
| RD3 I97Y (from UniProt Q7Z3Z2 1-195) (natural protein) | 55 |
| RD3 S120Y (from UniProt Q7Z3Z2 1-195) (natural protein) | 8.2 |
| RD3 E39R (from UniProt Q7Z3Z2 1-195) (natural protein) | 6.6 |
| RD3 D72R (from UniProt Q7Z3Z2 1-195) (natural protein) | 5.5 |
| RD3 137KLTRQ141→137QRKTL141 (from UniProt Q7Z3Z2 1-195) (natural protein) | 8.6 |

| Substance | RetGC1 activity left with 100 nM RD3, % of that without RD3 (1.5 uM GCAP1) [%] |
| --- | --- |
| RD3 3L→S5 deletion (from UniProt Q7Z3Z2 1-195) (natural protein) | 3.9 |
| RD3 S91Y (from UniProt Q7Z3Z2 1-195) (natural protein) | 13.3 |
| RD3 Y71G (from UniProt Q7Z3Z2 1-195) (natural protein) | 15.4 |
| RD3 L144W (from UniProt Q7Z3Z2 1-195) (natural protein) | 7.3 |
| RD3 186SMP188→186PRS188 (from UniProt Q7Z3Z2 1-195) (natural protein) | 12.7 |
| RD3 P75R (from UniProt Q7Z3Z2 1-195) (natural protein) | 10.7 |
| RD3 L103R (from UniProt Q7Z3Z2 1-195) (natural protein) | 12.1 |
| RD3 A64R (from UniProt Q7Z3Z2 1-195) (natural protein) | 15 |
| RD3 147RGSL150→147GRLS150 (from UniProt Q7Z3Z2 1-195) (natural protein) | 9.6 |
| RD3 Q123E/E124Q (from UniProt Q7Z3Z2 1-195) (natural protein) | 11.9 |
| RD3 W142A (from UniProt Q7Z3Z2 1-195) (natural protein) | 7.9 |
| RD3 171EDVERD176→171KKAKQR176 (from UniProt Q7Z3Z2 1-195) (natural protein) | 2.5 |
| RD3 S69Y (from UniProt Q7Z3Z2 1-195) (natural protein) | 9 |
| RD3 154KTRAR158→154ENSES158 (from UniProt Q7Z3Z2 1-195) (natural protein) | 7.5 |
| RD3 S20Y/P21R (from UniProt Q7Z3Z2 1-195) (natural protein) | 11.5 |
| RD3 E23R (from UniProt Q7Z3Z2 1-195) (natural protein) | 8.2 |
| RD3 L98Y (from UniProt Q7Z3Z2 1-195) (natural protein) | 9.9 |
| RD3 T28R (from UniProt Q7Z3Z2 1-195) (natural protein) | 15.3 |
| RD3 A135R (from UniProt Q7Z3Z2 1-195) (natural protein) | 9.1 |
| RD3 F153R (from UniProt Q7Z3Z2 1-195) (natural protein) | 7.3 |
| RD3 50AVRK53→50KAIE53 (from UniProt Q7Z3Z2 1-195) (natural protein) | 12.4 |
| RD3 178PPP180→178AAA180 (from UniProt Q7Z3Z2 1-195) (natural protein) | 8.5 |
| RD3 Q43R (from UniProt Q7Z3Z2 1-195) (natural protein) | 5.3 |
| RD3 Y71E (from UniProt Q7Z3Z2 1-195) (natural protein) | 16.4 |

| Substance | RetGC1 activity left with 100 nM RD3, % of that without RD3 (1.5 uM GCAP1) [%] |
| --- | --- |
| RD3 C55D (from UniProt Q7Z3Z2 1-195) (natural protein) | 6.9 |
| RD3 V58Q (from UniProt Q7Z3Z2 1-195) (natural protein) | 16.7 |
| RD3 A151R/T152Q (from UniProt Q7Z3Z2 1-195) (natural protein) | 7.1 |
| RD3 G35Y (from UniProt Q7Z3Z2 1-195) (natural protein) | 5.5 |
| RD3 V86R/K87A (from UniProt Q7Z3Z2 1-195) (natural protein) | 7.1 |
| RD3 S143Y (from UniProt Q7Z3Z2 1-195) (natural protein) | 9.1 |
| RD3 P67G (from UniProt Q7Z3Z2 1-195) (natural protein) | 11.3 |
| RD3 M31R (from UniProt Q7Z3Z2 1-195) (natural protein) | 6.6 |
| RD3 T70R (from UniProt Q7Z3Z2 1-195) (natural protein) | 8.2 |
| RD3 S65Y (from UniProt Q7Z3Z2 1-195) (natural protein) | 10.8 |
| RD3 T34Q (from UniProt Q7Z3Z2 1-195) (natural protein) | 8.1 |
| RD3 P90A (from UniProt Q7Z3Z2 1-195) (natural protein) | 24.2 |
| RD3 45RER47→45AAA47 (from UniProt Q7Z3Z2 1-195) (natural protein) | 17.9 |
| RD3 R119S (from UniProt Q7Z3Z2 1-195) (natural protein) | 12 |
| RD3 164SDIRT168→164RSDTI168 (from UniProt Q7Z3Z2 1-195) (natural protein) | 9.5 |
| RD3 R68D (from UniProt Q7Z3Z2 1-195) (natural protein) | 12.4 |
| RD3 77ERLQ80→77QLRE80 (from UniProt Q7Z3Z2 1-195) (natural protein) | 11.5 |
| RD3 T18D/R19A (from UniProt Q7Z3Z2 1-195) (natural protein) | 14.9 |
| RD3 E110R (from UniProt Q7Z3Z2 1-195) (natural protein) | 9.6 |
| RD3 Q116Y (from UniProt Q7Z3Z2 1-195) (natural protein) | 10.8 |
| RD3 132EEE134→132QQQ134 (from UniProt Q7Z3Z2 1-195) (natural protein) | 11.8 |
| RD3 E27R (from UniProt Q7Z3Z2 1-195) (natural protein) | 6.6 |
| RD3 R38S (from UniProt Q7Z3Z2 1-195) (natural protein) | 18.2 |
